Laboratory results reported in the DeepSol protein solubility set.

Assay: soluble on expression in E. coli; label from the status in PepcDB or PDB records

Row | Sequence | soluble on expression in E. coli
1 | MDDDDTFTCRIQYINDADPFATTSSSYLEPMRPVTFKFRLHECISDQLQDVIRTLRAPHKAGDSSLQVYRGLEGGGGELHTYLDNDMTLTDQQEELDILKADTRRCSLVLRTQTSLRVKTIIDKLLNCSGRDQRRALFSLKQIFQDDQDLVHEFVQNQGLDCMIRLGRTADQNHQNYILRALGQLMLYVDGMNGIIAHNGTIQWLYELLDSPFRLVVKTALKLLLVFIEYNDNNALLVLTAIQTVDKSKGQADWSGLMKVLTEKDSPDAETLVYGMTVVNKALHGIPDRVVILEPLHEFHPQFPQQFLHGNHQSGRIFNRLHLLQLITTISGLFAAKIFRRRFSWFRKIKRTRFRKKPTRVKVKAPPPSFPTLFSPTESKTMDFSEVAPQEPEPEKVAPPPPRAKIEDTGSGNSFADMLQKRAARSAEANRGTFEKKESEAEMQWKKAAENLEKRPLIINDLDFSQFHGVEYQQDPLQLARMAKMKEMAENGMRGGPVGVGVPPPPPPPSAIPLPPRLQGGIPPPPPLGIIPPPPPPGNLLMNGINRGDISPAANKGVLKLHWKPATVEQPDGIPSLKQKGSFWNTVDGAVPTFDAKKIVQLFETKKEKEAPVKKVAETKTQTLSVLPLKRSQAINIGLTKLPPINVIPAAIMKFDSLVLNKDGIEKILKTMMPSPKEIEEIEIKAAENPEMTLGNAEQLLLKLSQIPCLLERLRLWLFTLDYKNSEKDIAEPLMDMQLAMKEMEESRTFKVAMGMLLAIGNSLSGTDIKGFYLDYLTKASEVKDPVYKHTLTYHLAEYMVEHFSEGTDLYSEFGAVARSARVDYKELLDNLIRLEKDCKSSWECLATINVAQRIHQLKAIYTVTKNRWHSFLLYFGYSVDEIPNQTPNDVFKMVTEFSLEYRTTRDKILQQRKRLAEKRERNKTRGKIWALEGSSAEGGAGDAAPLRRRNHGPGTVAPVQNSQQRHDDMSKMLASMADDNNSLRRRPAGSNGVNGRNFGGSVKDLVDTESPEDEILNGLVKAATLQTDPRDQRRRARQFNRKSLRRTRTLKMVDGQLETNY | not soluble
2 | MDKIKVGLQYWIPQHALTRLVGKLASARAGSLTTAIIRWFIKQYNVNMDEALHSDPTHFKTFNEFFVRELKAGVRPIAEGEKVITHPADACVSQFGAIEYGKLIQAKGHTYSAQELLGGDAKLAEEFRDGDFATLYLSPRDYHRVHMPCDGTLRQMIYVPGDLFSVNPLTAENVPNLFARNERVVCIFDTEFGPMAQVLVGATIVGSIELVWAGTVTPPRGNTVYRWDYPANGNQAVVLKKGEEMGRFKLGSTVINLFAKQAIRFDDSMALGAPTRMGEPYAHQA | soluble
3 | MTTILSVRDVKKVIGKKTIVENISFDVKQGEVFGFLGPNGAGKTTTIRMLVGLIKETEGTISIGGYSIKENFREAMRQIGSIVENPELYTYLTGWENLKQFARMLGGISDERIIEIAHMVHLDERIHDKVKTYSLGMKQRLGIAQALLGNPKLLILDEPTNGLDPAGIRELREFIHKLVKEENMSVFISSHLLSEVQMICDRVAIIHKGKMITVAKVEELIKTASDRVEWIVTPISKTKDMLVDAEEVREVSIEGDRLLCRMHISSISNWNKTFVENGIDVHSVKELVFTLEDLFIELTRGEQHA | not soluble
4 | MGHHHHHHSHMAPPRIGTHNGTFHCDEALACALLRLLPEYRDAEIVRTRDPEKLASCDIVVDVGGEYDPRRHRYDHHQRSFTETMSSLSPGKPWQTKLSSAGLIYLHFGHKLLAQLLGTSEEDSMVGTLYDKAGFKRAMDLVQEEFLQRLDFYQHSWLPARALVEEALAQRFQVDPSGEIVELAKGACPWKEHLYHLESGLSPPVAIFFVIYTDQAGQWRIQCVPKEPHSFQSRLPLPEPWRGLRDEALDQVSGIPGCIFVHASGFIGGHRTREGALSMARATLAQRSYLPQIS | soluble
5 | KREPALNPNEYKKFMLREKQIINHNTRLFRFNLHHPEDVVGLPIGQHMSVKATVDGKEIYRPYTPVSSDDEKGYFDLIIKVYEKGQMSQYIDHLNPGDFLQVRGPKGQFDYKPNMVKEMGMIAGGTGITPMLQVARAIIKNPKEKTIINLIFANVNEDDILLRTELDDMAKKYSNFKVYYVLNNPPAGWTGGVGFVSADMIKQHFSPPSSDIKVMMCGPPMMNKAMQGHLETLGYTPEQWFIF | soluble
6 | MGSDKIHHHHHHMYLLDSAIAKQIVSRTMKIIGHNINVMNGQGMILGSGDPKRIGSIHEGALLAIAQNRNVEISQEVAASLHGVKPGINLPLHYQGQIIGVVGITGDPNELTHYGELLKMTAEMIVEQANLQDKLQWENRQREEFILQLIKAETDDRQLHRWAKQLDIDMSMPRVAAIIEISEKSTPIKIPKRPSDPLAIDLADTLQVNASDDRNHRVGETLKQVLHLLQYPDRGNLIAMTSMSQLVILKPAFLDGKQWDPELENQRIDRLLQRLPAQMNLNFKIALGHFFPENGGIARSYQTALETLALGKQLNPEGNKYLFEDYSLQVLLSGLKYDWRGQALAMPYQQLAKADKNGQLRKTLAAYITHFGDAQQCANTLFIHRNTLRYRLDKIQQITQADIQSLHGLLSLYLGQLIDSSKNTG | not soluble
7 | MIYSMTAYARKEVKGDWGSAVWEIRSVNQRYLETYFRLPEQFRGLEPLLRERFRQRLSRGKIECHLRFEANPAAQSHLTINEGLAQQVINAANQIMHMTGELSRINPFQVMQWPGVMETPEQDMDAINQALLSAFDEGVDEFIAARGREGDNMKALIEQRLQAISAEVVKVRARMPEILEWQRERLFSKFEEAKIELDASRVEQELILLAQKSDVAEELDRLDSHVKEAREVLKKGGSCGRKLDFMMQEFNRESNTLASKSISTDITASGVELKVLIEQMREQIQNIE | not soluble
8 | MNAFNPTQFRAQFPALADAGVYLDSAATALKPQAVIDATHQFYCLSAGNVHRSQFAQAQRLTAQYEAARAKAARLLNAPDEKSIVWTRGTTEAINMVAQCYARPRLRPGDEIIVSVAEHHANLVPWLMVAQQTGAQVIKLPLNDRRLPDVERLPELITSRSRILALGQMSNVTGGCPDLASAISAAHAAGMVVMVDGAQGAVHFPADVQQLDIDFYAFSAHKLYGPTGIGVLYGKPELLEAMSPWLGGGKMIRDVSFEGFTTQSAPWKLEAGTPNVAGVIGLSAALEWLSDIDIEQAENWSRGLATLAEDALAKRPGFRSFRCQDSSLLAFDFVGVHHGDMVTLLAEYGIALRAGQHCAQPLLAELGVTGTLRASFAPYNTQHDVDALVNAVDRALELLVD | not soluble
9 | MGSDKIHHHHHHVLTNQTGYEYHKCTDLTAMIKDYIDNWQKNNAHFDGIYSGFMTGSKQIELFMDFLDVFYEKNTMLLVDPVMGDDGRTYGIYSAALLDGMKALSRKADVITPNLTEACLLADYDIEKVYSDTRKDVLLPIAAEISEKLRCLSGKNQDVIITGIKCRDDKSPFIYNLVTTANGTTTHRSHFFDVSFSGTGDLFASVICGSRLNGFSTEEAAERAGKFLYDSIADTMNDDTAPNDGVNFEKFLRELM | not soluble
10 | MRVHEPNIIFEDDKHKFIWLGLDESENEKGILTNQYLIVHEGKGYLLDPGGYFVFERVYQNVTRFVKPENIVTILYSHQDPDVIGSLNLWVDLAPNATFYVSALWERFLPHLGAELKGRIVDIPDEGMSIDFIRAIPAHFMHSPGNFHYYDTYAKIYFSGDLGAAIFKDKWYLFVEDFESHIKLMEPFHRRYIASKKAIDIWLKKIEGLEINVIAPQHGAIFEGENAKKFIQWLRNLDKVGLDLME | soluble
11 | FAPLEADHPGRSGLLALLDNPDAYAARALSARMAGRSLDLMYYIWRTDLTGWLLIEELLAAADRGVRVRLLLDDVNVQGFDRAFLALNQHPNVEVRLFNPIRNRGHVLRRTLEMLLGLSRFNRRMHNKAWIADGRLAIVGGRNIGDTYYDAEESGLAMSRDADVMLAGPVVAEVEGLFDSYWNLGLALPILTLWPE | not soluble
12 | MIPRPIPEPSPDLYTEEEVSKLVHEFYAKARKDAALGPIFEEHVIDWDAHFVQMTNFWSAQLRGTSRFRGAPMPKHIALPELNETLFKRWLQLFRQTTLELGNPLLKQHADTVAEFIAGRLWMGYQMSHFPHREPADLNTSEV | not soluble
13 | GLEVTVWNRSAAACEPLVALGAARAEEVGELFGLDVVISMLADDQAIRGVLLDSGALERARPGLIHLSMSTLSLDCVEALDQAHQRQGLAFVAAPVFGRTDVAEAGKLNIVVGGPEEAIEQVKALLEIMGQKTWFFGKDPRGAMAVKISGNFMIASAIESMGESVALVKRLGVEPGRFMELMSSTLFDAPVYRNYGPQIVEQRFTPARFRLVLGLKDVDLALSAGKRHNVPLPLASLLHDVLLEAIAHGDGESDWTALAKVALSRSGQI | not soluble
14 | MAFSMLFTGHAECVKFVKKFNLPLLVTGGGGYTKENVARCWTVETGILLDTELPNEISENDYIKYFAPDFSLKIPGGHIENLNTKSYISSIKVQILENLRYIQHAPSVQMQEVPPDFYIPDFDEDEQNPDVRVDQRSRDKQIQRDDEYFDGDNDNDAS | not soluble
15 | MDAEEKMGVELSSPSAIMEHARRLYMSKDYRSLESLFGRCLWKSYNLDLWMLYIEYVRKVSQKKFKLFEVYEFTLGQFENYWDSYGLFKEYIEELGKIEDEQTRIEKIRNGYMRALQTPMGSLSELWKDFENFELELNKITGKKIVGDTLPLFQSSFQRYQQIQPLIRGWSVKNAARLIDLEMENGMKLGGRPHESRMHFIHNYILDSFFYAEEVYFFYSEYLIGIGQKEKAKKVVERGIEMSDGMFLSLYYGLVMDEEAVYGDLKRKYSMGEAESAEKVFSKELDLLRINHLNYVLKKRGLELFRKLFIELGNEGVGPHVFIYCAFIEYYATGSRATPYNIFSSGLLKHPDSTLLKEEFFLFLLRIGDEENARALFKRLEKTSRMWDSMIEYEFMVGSMELFRELVDQKMDAIKADAILPPLPPREHNVQMEGILGRYHCFLDSFNFLDLKIRDNSRLLDEFMENLPKISQQNNVLSNLRVEKVISLLKSVQ | soluble
16 | MIMQKRLLNRNSSVVKSRNCLARHQHESSISKLHVSLRLHRCLRPIVRFDFLHNAGSKVCSQNSCPSPQLHVGTMALFHTVFILWPHFCGILWTVHEKLYNYLLSIEVY | soluble
17 | MSQHLVPEAKNGLSKFKNEVANEMGVPFSDYNGDLSSRQCGSVGGEMVKRMVEKYEQSMK | soluble
18 | MIPITPTIALDDAEIEERFIRSSGPGGQNVNKVSTAVQLRFDVAGSPNLPGWVKHRLSVLAGSRLTGEGVLVLTAQSQRTQEANRREAVERLVALIQAACHRDKPRRPTRPTKGSQTRRMDGKTLRGAIKKGRQSKPSLDLEHHHHHH | soluble
19 | MDMESQKILFALSTPMEIRNECCLPSHSSPKMYLGTCFFDLSSSWGIDDRDDLLRTIHRMIDNGHAARLAGFYHRWFRYSPCEWRDYLAELNEQGQAYAQFVASTAECCGEGGIKAWDYVRMGFLSRMGVLNNWLSEEESLWIQSRIHLRALRYYSNWRQYFAGYTFGRQYWQSPEDDHLPLLREFLARKEYDDSGNDMFYQLFASDDAYYPTLSWQPLAYYSACPETLKDMSDL | not soluble
20 | MGSDKIHHHHHHMSEDILPITISLAGEKDTIRLGEDLALALKPGDCLTLIGDLGAGKSTLARAFIRAMADEPDLEVPSPTFTIIQTYTTRIPVAHLDLYRLSDVSELDELGIDEMLEDGICLIEWPDIAAEVLPPAQTITLQLTHSGEGRVAVIEAPAQQKARLDRVFAIREFLAKNGRGDATRRFLSGDASTRAYETISTDGPDLILMDWRRPMRGAIVADGKTYAEIVHLAQDARSFVAIGDYLRNSGFRAPEILAADIDQGILLLEDLGREGVLAADGTPIEERYLQSVACLATLHQTPRPALLPMRDGSTYDIPSFDRQAMKIEVSLLVEWYLPHKRGKALTDGEKQDYYAIWDGLIDALAGCETGLLLRDFHSPNILWQAQNSGIGQVGLIDFQDAMIGPTAYDLASIVQDARVTIPPELQTRLMSHYLNSRKATPAFDEAAFLKAFAIMSAQRNCKLAGIWVRLLERDKKPGYMKHMPRTFRYLADALSHPELAPLREWCVRMGMDFND | not soluble
21 | MLVDKTEFEAWMERIMGELYRISRKLDKAETREKHLNYLNGERLYDNQEVCLLLRISKRTLQRYRNNGVLKFYSIYHKTYYKESDLHEFIRNNFDENEIKRQAREDKLSESYPLPKE | not soluble
